Results reported in article PMC6232118.

What was measured:
Assay in all cases: EMSA
Details in all cases: pH 7.9, temperature not given, scale: slope of unbound DNA vs protein
[1] = system: FlhD (E. coli);FlhC (E. coli) (Escherichia coli;Escherichia coli)
[2] = system: FlhD (E. coli);FlhC (S. enterica) (Escherichia coli;Salmonella enterica sv Typhimurium)
[3] = system: FlhD (S. enterica);FlhC (E. coli) (Salmonella enterica sv Typhimurium;Escherichia coli)
[4] = system: FlhD (S. enterica);FlhC (S. enterica) (Salmonella enterica sv Typhimurium;Salmonella enterica sv Typhimurium)

## PflgAB promoter PCR product
[1]
  binding signal: -1570
[2]
  binding signal: -784
[3]
  binding signal: -1120
[4]
  binding signal: -906
